These are literature values, as cited in publication PMC5671728.

Data set [1] addresses Insulin receptor isoform A (Homo sapiens) (UniProt P06213).
Data set [2] addresses Insulin receptor isoform B (Homo sapiens) (UniProt P06213).

“And” between values parts separate entries of the source, which are not always exact repeats. Equal entries are not always repeated.

Chain of Insulin (P01308 90-110): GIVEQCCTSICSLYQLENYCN

Turning to Insulin (from UniProt P01308), the Kd (commonly the concentration at which binding is half-saturated) in data set [1] is 0.91 nM and 2.1 nM; in data set [2], 1.8 nM and 1.56 nM.
